According to patent publication US20220267460A1:

How the values were obtained:
FcγRIIIa = FcγRIIIa (UniProt P08637); assay: cell-based or functional assay
[1] = target: human FcγRIIa-H variant (Histidine at amino acid 131) (human) (UniProt P12318); assay: cell-based or functional assay
human FcγRIIa-H variant (Histidine at amino acid 131) (human), sequence (P12318 34-317, change not shown): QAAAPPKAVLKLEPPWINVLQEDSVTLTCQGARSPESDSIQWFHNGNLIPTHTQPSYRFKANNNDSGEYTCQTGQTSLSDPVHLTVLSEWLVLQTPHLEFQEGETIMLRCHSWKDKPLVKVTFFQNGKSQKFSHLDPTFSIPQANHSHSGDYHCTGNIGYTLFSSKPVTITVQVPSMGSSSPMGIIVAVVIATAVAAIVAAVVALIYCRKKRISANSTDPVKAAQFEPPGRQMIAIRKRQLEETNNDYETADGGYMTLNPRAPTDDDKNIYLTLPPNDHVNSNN

FcγRIIIa, sequence (P08637 17-254 F176V limits assumed): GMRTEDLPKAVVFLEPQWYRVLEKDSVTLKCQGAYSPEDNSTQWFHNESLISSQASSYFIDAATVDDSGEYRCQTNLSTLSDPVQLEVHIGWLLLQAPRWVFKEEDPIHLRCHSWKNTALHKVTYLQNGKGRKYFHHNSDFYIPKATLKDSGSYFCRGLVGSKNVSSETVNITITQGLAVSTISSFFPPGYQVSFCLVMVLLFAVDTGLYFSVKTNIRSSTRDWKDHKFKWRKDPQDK

## obinutuzumab monoclonal antibody, fucosylated
FcγRIIIa
  EC50 (nM) Mean, FcγRIIIa signaling in ADCC reporter assay (Raji target cells, Jurkat/FcγRIIIa effector cells, luciferase): 0.08 nM
[1]
  EC50 (nM) Mean, FcγRIIa signaling in ADCP reporter assay (Raji target cells, Jurkat/FcγRIIa-H effector cells, luciferase): 7.1 nM

## avelumab (Bavencio) monoclonal antibody, fucosylated
FcγRIIIa
  EC50 (nM) Mean, FcγRIIIa signaling in ADCC reporter assay (HEK-PD-L1 target cells, Jurkat/FcγRIIIa effector cells, luciferase): 0.049 nM
